Assay results: patent CN114573704A (dated 2022)

How the values were obtained:
[1] = target: T1, 筛选及检测用人PD-1-Fc抗原 (human PD-1-Fc, 百英生物 B3789) (human); test: competition ELISA, PD-1-Fc coated, biotinylated PD-L1 as competitor, antibody titrated
T1 construct: also called 带Fc标签的PD-1融合蛋白

[2] = target: T2, 筛选及检测用人PD-1抗原 (human PD-1 extracellular domain with His tag, Sino Biological Cat.10377-H08H) (human, UniProt Q15116 25-167); test: SPR Biacore T200, antibody captured on protein A CM5 chip, PD-1-His as analyte
T2 construct: Bought product; the entry holds the extracellular domain and the His tag; also called PD-1蛋白

IC50 [1]: 2.79 nM
Kd [2]: 7.75 nM
koff [2]: 0.000479 s⁻¹
kon [2]: 61800 M⁻¹ s⁻¹
B1: WO2017054646中的IgG4型PD-1Ab646 (antibody, V domains shown)
VH: EVQLVESGGGLVQPGGSLRLSCAASGFTFSSYMMSWVRQAPGKGLEWVATISGGGANTYYPDSVKGRFTISRDNAKNSLYLQMNSLRAEDTAVYYCARQLYYFDYWGQGTTVTVSS
VL: DIQMTQSPSSLSASVGDRVTITCLASQTIGTWLTWYQQKPGKAPKLLIYTATSLADGVPSRFSGSGSGTDFTLTISSLQPEDFATYYCQQVYSIPWTFGGGTKVEIKR
notes: IgG4 positive control
